According to US20090175866A1, “TREATMENT OF B-CELL MALIGNANCIES” (priority 2004, published 2009):

Columns and labels:
[1] = tested on: 8226 cells; assay: Viability of 8226 myeloma cells (MTT); type: cell-based, human; settings: 5 μg/ml, cells lack FGFR3 expression
Excerpt: (§1) FIG. 2 is a graph showing the viability of human myeloma cell lines in the presence of PRO-001. Viability is reported as the ratio between the optical density (OD) in the presence of FGF±inhibitor and the OD in the absence of FGF.
(§2) Non-transformed rat chondrocyte cell line expressing PGFR3 in an inducible manner (RCJ-FGFR3) has been described previously (Rauchenberger R. et al. J. Biol. Chem. 2003; 278:38194-205). Cells were maintained in α-Minimum Essential Media supplemented with 15% fetal calf serum (FCS), 2 mM L-Glutamine, 100 U/ml penicillin, 100 μg/ml streptomycin, 600 μg/ml G418 (Gibco BRL, Ontario, Canada), 2 μg/ml Tetracyclin (Sigma, Ontario, Canada), and 50 μg/ml HygromycinB (Gibco BRL). […]
(§3) Cell viability was assessed by 3-(4,5-dimethylthiazol)-2,5-diphenyl tetrazolium (MTT) or (2,3-bis(2-methoxy-4-nitro-5-sulphophenyl)-5-[(phenylamino) carbonyl]-2H-tetrazolium hydroxide (XTT) dye absorbance where indicated. Cells were seeded in 96-well plates at a density of 20,000 (FDCP-1 cells), 5,000 (B9 cells) or 25,000 cells (MM cell lines) per well in culture medium. Cells were incubated in the absence or presence of one of the following cytokines: 10 ng/ml FGF9 and 5 μg/ml heparin, 1% murine IL-6, 50 ng/ml IGF-1 or 50 ng/ml human IL-6 where indicated and increasing concentrations of PRO-001, control antibody (purified human Fab) or 100 nM PD173074. […]

[2] = target: FGFR1 (Homo sapiens, UniProt P11362); assay: FGF-stimulated proliferation of FDCP-FGFR1 cells (XTT); type: cell-based; settings: up to 10 fold higher concentrations than the FDCP-FGFR3 IC50
Excerpt: FIG. 1D is a graph showing proliferation of FGFR expressing FDCP cells in the presence of increasing concentrations of PRO-001 as determined by XTT analysis. Data are the average of duplicate cultures. The X axis represents concentration of PRO-001 Fab. The Y axis represents % inhibition.
Non-transformed rat chondrocyte cell line expressing PGFR3 in an inducible manner (RCJ-FGFR3) has been described previously (Rauchenberger R. et al. J. Biol. Chem. 2003; 278:38194-205). […]
as §3

[3] = tested on: UTMC2 cells; assay: Viability of stimulated UTMC2 myeloma cells (MTT); type: cell-based, human
Method: as §1
FIG. 4 is a graph showing viability of UTMC2 cells treated with FGF, IL6 or IGF-1. The dark bars represent stimulated cells treated with a control antibody; the dotted bar represents stimulated cells treated with 5 μg/ml PRO-001; the square-filled bar represents stimulated cells treated with 100 nM PD173074.
as §2, with “BRL). FGFR3 expression was induced by removal of tetracyclin and serum starvation.” for “BRL).”
as §3
PRO-001 was tested against t (4; 14) myeloma cell lines expressing FGFR3: UTMC2 cells—expressing WT FGFR3, and H929 cells—expressing WT FGFR3 but harboring a downstream activating mutation of N-Ras. Cell growth in the presence of FGF and PRO-001 (5 μg/ml), control antibody (isotype) or 100 nM PD173074 was determined by MTT assay. […]

Sequence of FGFR1 (P11362 22-822, species assumed): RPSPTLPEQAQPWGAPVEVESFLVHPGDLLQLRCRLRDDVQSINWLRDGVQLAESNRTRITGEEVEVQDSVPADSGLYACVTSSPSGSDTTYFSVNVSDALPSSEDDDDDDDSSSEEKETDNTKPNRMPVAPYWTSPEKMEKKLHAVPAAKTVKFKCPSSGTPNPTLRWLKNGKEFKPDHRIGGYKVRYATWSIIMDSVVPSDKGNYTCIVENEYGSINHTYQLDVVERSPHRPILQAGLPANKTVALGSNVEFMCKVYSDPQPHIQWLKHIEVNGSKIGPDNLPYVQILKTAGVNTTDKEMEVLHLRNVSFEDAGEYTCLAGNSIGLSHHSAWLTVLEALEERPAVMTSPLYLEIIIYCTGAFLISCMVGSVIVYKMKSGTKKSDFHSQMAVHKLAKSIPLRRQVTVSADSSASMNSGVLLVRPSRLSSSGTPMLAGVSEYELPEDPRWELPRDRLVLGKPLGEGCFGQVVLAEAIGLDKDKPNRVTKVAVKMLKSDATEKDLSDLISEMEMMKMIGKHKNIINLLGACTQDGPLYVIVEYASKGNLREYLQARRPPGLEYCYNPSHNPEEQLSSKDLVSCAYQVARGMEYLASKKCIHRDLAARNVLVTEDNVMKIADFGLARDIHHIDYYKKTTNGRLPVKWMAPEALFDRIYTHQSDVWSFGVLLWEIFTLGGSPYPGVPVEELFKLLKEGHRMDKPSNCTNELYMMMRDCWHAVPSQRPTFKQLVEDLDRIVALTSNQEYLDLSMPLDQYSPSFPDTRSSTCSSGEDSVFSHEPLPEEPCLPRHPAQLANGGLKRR

B1: PRO-001: human anti-FGFR3 Fab from HuCAL library; VH-CDR3 SEQ ID NO:1, VL-CDR3 SEQ ID NO:10; VH SEQ ID NO:19, VL SEQ ID NO:28 (antibody, V domains shown)
VH: QVQLQQSGPGLVKPSQTLSLTCAISGDSVSSNSAAWNWIRQSPGRGLEWLGRTYYRSKWYNDYAVSVKSRITINPDTSKNQFSLQLNSVTPEDTAVYYCARSYYPDFDYWGQGTLVTVSS
VL: DIELTQPPSVSVAPGQTARISCSGDALGDKYASWYQQKPGQAPVLVIYDDSDRPSGIPERFSGSNSGNTATLTISGTQAEDEADYYCQSYDGPDLWVFGGGTKLTVLGQ
In the case of B1, the “Cell growth of 8226 cells in the presence of FGF” value [1] is reported as “resistant”, the “Proliferation of FDCP-1 cells expressing FGFR1” value [2] is reported as “unaffected” and the “Viability of UTMC2 cells stimulated with IGF-1” value ([3]; 5 μg/ml PRO-001) is reported as “remain sensitive”. For the same molecule, the “Viability of UTMC2 cells stimulated with IL6” value ([3]; 5 μg/ml PRO-001) was “remain sensitive” and the “Proliferation of FGF-stimulated UTMC2 cells” value ([3]; 5 μg/ml, MTT) was “significantly inhibited”.
